The subject of series [1] is diet induced obese (DIO) mice. The series can be described thus: Diet induced obese (DIO) mouse model of obesity. The series is classed as in vivo. To be noted: 0.01, 0.1, 1 mg/Kg sc, 10 days, compared to DOM7h-14 control. The procedure: This may be predictive for humans. Male C57B1/6 mice (purchased from Taconic) were fattened on 60% kcal high fat irradiated diet for 12 wks and then transferred to the in-house facility. Upon arrival, the mice were individually housed on alpha-dri bedding in a temperature and humidity controlled room (70-72° F., Humidity=48-50%, 5 AM/5 PM light cycle). The diet was changed to 45% high fat diet and the animals acclimated for 18 days. Prior to administration of test compound, mice were injected subcutaneously with saline once daily for three days and food consumption monitored. Mice were blocked and grouped such that body weight and food consumption were not different between or within groups.
Daily food consumption and body weight were measured daily for 10 days. […] It was therefore concluded that the data from this mouse study supports the hypothesis that DAT0115 would be a good clinical candidate.

The target of series [2] is RSA (Rattus norvegicus, UniProt P02770). The series can be described thus: Surface plasmon resonance (Biacore, streptavidin chip with biotinylated serum albumin), RSA. Particulars: Biacore SA chip, HBS-EP buffer; read-out: Affinity (KD) to RSA. The series is classed as binding. How it is done:
The analysis was performed using a streptavidin chip (SA) coated with biotinylated serum albumin. 200-1000 resonance units (RUs) of each serum albumin was immobilised on the chip. Flow cell 1 was uncoated, flow cell 2 was coated with HSA, flow cell 3 was coated with RSA and flow cell 4 was coated with CSA. A range of concentrations of fusion was prepared (in the range 15.6 nM to 2 μM by dilution into BIACORE HBS-EP buffer (0.01M HEPES, pH7.4, 0.15M NaCl, 3 mM EDTA, 0.005% surfactant P20) and flowed across the BIACORE chip.
Affinity (KD) was calculated from the BIACORE traces by fitting on-rate and off-rate curves to traces generated by concentrations of dAb in the region of the KD.
For orientation: In SPR one partner is held on a chip, and binding of the other changes the refractive index at the surface.

On the set-up of series [3]: species or system cynomolgus monkey (Macaca fascicularis). To be noted: cynomolgus monkey, in vivo, 0.1 mg/kg. The procedure: Briefly, protein was purified using batch absorption to protein L-agarose affinity resin followed by elution with glycine at pH 2.0 and neutralisation woth Tris PH 8.0. This was followed by ion exchange chromotography on a Resource S column using a 0-1M salt gradient in 20 mM acetate pH5.0. Fractions containing the desired protein were then combined and buffer exchanged into 100 mM NaCl, 20 mM citrate pH6.2. Protein was extensively QCed (including SDS-PAGE, mass spec, activity assay:GLP-1R-BA, pH check, osmolarity check), filter sterilised and endotoxin removed. Protein with confimed low endotoxin (<0.05 EU/mg protein) was then used for the in vivo study. Six female cynomolgus monkeys (Macaca fascicularis; Charles River Laboratories BRF, Houston, Tex., Primate Products, Miami, Fla. and/or Covance Research Products, Inc., Alice, Tex.) were used in this study. The monkeys were approximately 2 to 9 years old (with a body weight range of approximately 2 to 5 kilograms) at initiation of dosing. The monkeys were housed individually in stainless-steel cages in an environmentally controlled room(s) (64 F to 84 F; 30 to 70% relative humidity) with a 12-hour light/dark cycle. The female monkeys were offered approximately 6 biscuits twice daily of Monkey Diet #5038 (PMI Nutrition International, Richmond, Ind.) and a daily allotment of fresh fruit. […] Dose was at 0.1 mg/Kg. On the days of dosing, the first feeding occurred within approximately 1 hour post dose for each monkey (extended up to 2.5 hours post dose if study-related procedures required animals to be out of their local housing for an extended period of time). The second feeding was no sooner then two hours following the first feeding. For the purpose of environmental enrichment, additional fruit, legume and/or vegetable (e.g., grapes, baby carrots, peanuts) was provided to each monkey at or around the time of viability check or as a method of reward after acclimation or study-related procedures. Filtered tap water (supplied by Aqua Pennsylvania, Inc. and periodically analyzed) was available ad libitum. Plasma samples (approx 2 ml) were collected from the femoral vessel at predose (0 hour) and nominally at 5 minutes (iv group only), 0.5, 4, 8, 24, 48, 96, 144, 192, 288, 336, 504 and 672 hours after dosing. (PK samples from one of the animals in the iv dose group were only collected to 24 h so this animal has been excluded from the PK fitting). Analysis of samples was by mass spectrometry, and fitting of the data was using WinNonLin fitting software. PK parameters were as follows for iv administration (n=2): T1/2 67 h, MRT 46 h, Vz 327 ml/Kg and Cl 3.3 ml/hr/Kg; and for sc administration (n=3): T1/2 68 h, MRT 98 h, Vz 306 ml/Kg and Cl 3.1 ml/hr/Kg. Bioavailability was calculated as 99%.

Read-outs that look alike come from different tables or passages of the source.

Chain of RSA (P02770 25-608): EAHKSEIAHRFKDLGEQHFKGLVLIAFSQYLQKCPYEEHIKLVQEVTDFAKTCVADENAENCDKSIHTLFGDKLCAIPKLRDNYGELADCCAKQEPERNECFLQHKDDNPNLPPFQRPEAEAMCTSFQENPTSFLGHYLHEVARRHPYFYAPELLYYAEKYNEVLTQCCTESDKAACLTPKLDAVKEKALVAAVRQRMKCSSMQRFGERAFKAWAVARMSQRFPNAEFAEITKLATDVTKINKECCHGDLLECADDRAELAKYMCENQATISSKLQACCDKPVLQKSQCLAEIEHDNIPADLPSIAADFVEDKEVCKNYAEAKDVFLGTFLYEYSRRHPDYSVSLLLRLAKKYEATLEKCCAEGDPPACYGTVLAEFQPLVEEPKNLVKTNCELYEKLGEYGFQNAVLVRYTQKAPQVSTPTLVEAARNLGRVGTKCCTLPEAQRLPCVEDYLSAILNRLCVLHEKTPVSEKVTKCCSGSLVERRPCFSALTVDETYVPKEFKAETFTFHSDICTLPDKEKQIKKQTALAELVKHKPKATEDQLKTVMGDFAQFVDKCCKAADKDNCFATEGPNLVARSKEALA

Turning to “Exendin 4 (G4S linker)3 DOM7h-14 dAb fusion [DAT0115]”, in series [1], the body weight entry is “dose dependent reduction” and the food consumption result was “dose dependent reduction”. Further, the Kd (as a rule, the equilibrium constant for the complex coming apart) in series [2] was determined as 2000 nM. The substance also had a Bioavailability in series [3] of 99%. Moreover, in series [3] (iv), the Cl came out at 3.3 mL/h/kg, the MRT (commonly the average time that molecules of a dose stay in the body) came out at 46 h, the T1/2 worked out at 67 h and the Vz is 0.327 L/kg. Further, in series [3] (sc), the Cl is 3.1 mL/h/kg, the MRT worked out at 98 h, the T1/2 stood at 68 h and the Vz is 0.306 L/kg.

Values taken from patent US20130189255A1, “FUSIONS AND CONJUGATES OF INSULINOTROPIC AGENTS” (GLAXO GROUP LIMITED, priority 2008, published 2013).
